The source of these data is article PMC8303780, “Mutational Analysis of Redβ Single Strand Annealing Protein: Roles of the 14 Lysine Residues in DNA Binding and Recombination In Vivo”.

Settings in all cases: protein: recombinant, tags: 6xHis removed by thrombin, residual N-terminal GSH
The target in one data set is T1, Redβ K69A (bacteriophage λ, UniProt P03698 1-261, K69A).
T1 sequence: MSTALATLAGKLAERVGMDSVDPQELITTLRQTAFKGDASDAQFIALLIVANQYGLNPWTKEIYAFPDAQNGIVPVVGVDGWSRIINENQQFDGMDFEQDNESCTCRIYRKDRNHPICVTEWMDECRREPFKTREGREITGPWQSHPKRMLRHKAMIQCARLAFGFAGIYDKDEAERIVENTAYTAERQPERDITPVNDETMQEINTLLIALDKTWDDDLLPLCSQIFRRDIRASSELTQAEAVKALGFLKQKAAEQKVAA
Nature of the data set: EMSA; PBS; enhanced vs WT; Anisotropy: 50 mM Tris-HCl pH 7.5, 1 mM DTT, 0.1 mg/mL BSA, 10 nM FAM48, 23 °C (Kd per monomer); gel assay: 10 µM Redβ, 50 µM nt of each oligo, PBS, 37 °C, 1% agarose at 22 °C.

The target in the next data set is T2, Redβ K132A (bacteriophage λ, UniProt P03698 1-261, K132A).
T2 sequence: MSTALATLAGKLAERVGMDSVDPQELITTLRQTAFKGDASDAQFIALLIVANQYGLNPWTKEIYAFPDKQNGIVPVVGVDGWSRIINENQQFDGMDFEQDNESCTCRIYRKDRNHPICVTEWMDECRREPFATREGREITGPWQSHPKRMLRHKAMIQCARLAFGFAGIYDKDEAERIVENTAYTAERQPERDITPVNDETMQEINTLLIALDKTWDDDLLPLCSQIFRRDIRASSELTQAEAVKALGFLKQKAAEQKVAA
Nature of the data set: EMSA; PBS; Anisotropy: 50 mM Tris-HCl pH 7.5, 1 mM DTT, 0.1 mg/mL BSA, 10 nM FAM48, 23 °C (Kd per monomer); gel assay: 10 µM Redβ, 50 µM nt of each oligo, PBS, 37 °C, 1% agarose at 22 °C.

In the next data set the target is T3, Redβ K61A (bacteriophage λ, UniProt P03698 1-261, K61A).
T3 sequence: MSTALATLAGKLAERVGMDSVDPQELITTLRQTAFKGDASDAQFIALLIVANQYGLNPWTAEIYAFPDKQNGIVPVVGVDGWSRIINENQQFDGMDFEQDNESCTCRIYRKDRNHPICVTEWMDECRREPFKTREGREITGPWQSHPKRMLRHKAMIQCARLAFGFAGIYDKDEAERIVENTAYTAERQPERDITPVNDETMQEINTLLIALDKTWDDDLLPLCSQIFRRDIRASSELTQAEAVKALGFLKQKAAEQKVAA
The data set is described as above.

The target in another data set is T4, Redβ K148A (bacteriophage λ, UniProt P03698 1-261, K148A).
T4 sequence: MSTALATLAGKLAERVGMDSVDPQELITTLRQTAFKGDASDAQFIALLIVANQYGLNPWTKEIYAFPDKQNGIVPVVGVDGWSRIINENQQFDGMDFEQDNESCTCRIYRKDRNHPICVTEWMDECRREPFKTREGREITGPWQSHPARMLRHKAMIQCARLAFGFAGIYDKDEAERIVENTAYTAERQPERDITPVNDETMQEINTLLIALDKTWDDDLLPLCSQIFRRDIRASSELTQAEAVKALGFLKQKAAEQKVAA
Described as above.

In the next data set the target is T5, Redβ K111A (bacteriophage λ, UniProt P03698 1-261, K111A).
T5 sequence: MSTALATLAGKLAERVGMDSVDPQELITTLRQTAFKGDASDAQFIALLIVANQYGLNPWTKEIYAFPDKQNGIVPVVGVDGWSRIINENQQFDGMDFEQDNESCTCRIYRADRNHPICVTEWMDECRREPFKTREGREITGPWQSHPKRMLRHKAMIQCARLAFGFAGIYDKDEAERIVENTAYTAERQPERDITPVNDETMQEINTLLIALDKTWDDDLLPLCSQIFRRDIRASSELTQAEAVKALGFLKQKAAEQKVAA
The description is as above.

Another data set has as its target T6, Redβ K172A (bacteriophage λ, UniProt P03698 1-261, K172A).
T6 sequence: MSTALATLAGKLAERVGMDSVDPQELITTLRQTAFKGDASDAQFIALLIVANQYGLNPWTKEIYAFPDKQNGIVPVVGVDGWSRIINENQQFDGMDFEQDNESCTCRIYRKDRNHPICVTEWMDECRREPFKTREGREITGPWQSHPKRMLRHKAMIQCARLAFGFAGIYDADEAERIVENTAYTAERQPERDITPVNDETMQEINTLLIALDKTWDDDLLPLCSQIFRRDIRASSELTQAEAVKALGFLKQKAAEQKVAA
The description is as above.

The target of another data set is T7, Redβ K154A (bacteriophage λ, UniProt P03698 1-261, K154A).
T7 sequence: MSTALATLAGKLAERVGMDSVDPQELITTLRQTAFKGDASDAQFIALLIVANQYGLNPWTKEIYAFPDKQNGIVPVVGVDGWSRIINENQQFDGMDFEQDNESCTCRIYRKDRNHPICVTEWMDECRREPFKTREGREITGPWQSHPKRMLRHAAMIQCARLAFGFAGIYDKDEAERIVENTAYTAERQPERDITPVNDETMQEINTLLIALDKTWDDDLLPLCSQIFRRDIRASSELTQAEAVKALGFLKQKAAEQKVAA
The data set is described as above.

B1: Cy3 50-mer ssDNA (ssDNA)
DNA: GCGGATGGCTTAGAGCAGAATCGCCCTGCATAGCTCGATTTTTGCGGATG
Consider B1, for which the binding result with Redβ K69A (label: 5'-Cy3) is “binds”; with Redβ K132A (label: 5'-Cy3) it was “no binding”; with Redβ K61A (label: 5'-Cy3), “no binding”; with Redβ K148A (label: 5'-Cy3), “no binding”; with Redβ K111A (label: 5'-Cy3), “no binding”; in the data set with Redβ K172A (label: 5'-Cy3), “no binding”. For the same molecule, the binding result with Redβ K154A (label: 5'-Cy3) is given as “no binding”.

B2: Cy5 50-mer ssDNA (ssDNA)
DNA: CCATCCGCAAAAATCGAGCTATGCAGGGCGATTCTGCTCTAAGCCATCCG
Consider B2, for which the binding result is reported as “binds” in the data set with Redβ K69A (label: 5'-Cy5); “no binding” in the data set with Redβ K132A (label: 5'-Cy5); “no binding” with Redβ K61A (label: 5'-Cy5); “no binding” with Redβ K148A (label: 5'-Cy5); “no binding” with Redβ K111A (label: 5'-Cy5); “no binding” with Redβ K172A (label: 5'-Cy5). In the data set with Redβ K154A (label: 5'-Cy5), the binding result is on record as “no binding”.
